We go through 37 sequences from the supplement of paper PMC10567573.

The nature of the data set: protein stability index of a GFP-peptide fusion (GPS, HEK-293T) (PSI 1-6); higher = more stable. The following applies: c terminus: a fixed tail appended.

± gives the standard deviation.
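Also: 24-mer peptide tiles fused after GFP, lentivirally expressed, FACS-sorted into six equal bins by GFP/DsRed ratio, decoded by Illumina sequencing, PSI is the read-weighted mean bin number.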

LHLESELAQTRAEGQRQAQEYEAL [KRT18] came in with a protein stability index (treatment: DMSO) of 5.07 ± 0.2 and a protein stability index (treatment: MLN4924 1 uM, 8 h) of 5.08 ± 0.26.

As for IVDKCTELLREGRASATTTITTAA [ZBTB22], the protein stability index stood at 3.78 ± 0.1 (treatment: DMSO) and 3.74 ± 0.18 (treatment: MLN4924 1 uM, 8 h).

As to TSDASFHPAFLPQRQAIKGAFYRR [KCNG1], the protein stability index by setting is: (treatment: DMSO) 3.62 ± 0.097; (treatment: MLN4924 1 uM, 8 h) 3.66 ± 0.13.

Consider LLKALVSELSEHLRDPLTSLSHTE [FCHSD1], for which the protein stability index reads like this: (treatment: DMSO) 2.44 ± 0.42; (treatment: MLN4924 1 uM, 8 h) 2.2 ± 0.17.

As for FVDSIRRQFEFSVDSFQIILDSLL [TENT5C], the protein stability index came to 2.33 ± 0.37 (treatment: DMSO) and 2.31 ± 0.14 (treatment: MLN4924 1 uM, 8 h).

With QFLNDRLASYLEKVRQLERDNAEL [KRT33B], the protein stability index by setting is: (treatment: DMSO) 3.18 ± 0.18; (treatment: MLN4924 1 uM, 8 h) 3.33 ± 0.28.

NVKMIVLICVIVFIIILFIVLFAT [VAMP8]: the protein stability index runs as follows: (treatment: DMSO) 2.27 ± 0.3; (treatment: MLN4924 1 uM, 8 h) 2.37 ± 0.27.

Consider VFFFIFFVQDVLFVLQAIGIPGWG [SCAMP3], for which the protein stability index was 3.44 ± 0.83 (treatment: DMSO) and 2.93 ± 0.71 (treatment: MLN4924 1 uM, 8 h).

As to PTTEPETEPEDDRGPVVPKHSTFG [GNAS], the protein stability index runs as follows: (treatment: DMSO) 5.4 ± 0.18; (treatment: MLN4924 1 uM, 8 h) 5.27 ± 0.42.

With AQLELYQLQVESNSSQLLLRRHAG [SCARA5], the protein stability index reads like this: (treatment: DMSO) 2.71 ± 0.26; (treatment: MLN4924 1 uM, 8 h) 2.9 ± 0.25.

Take VNSSIKTFFCPNDTYNDMATLFFN [CLCN6]: the protein stability index (treatment: DMSO) came out at 2.13 ± 0.31 and the protein stability index (treatment: MLN4924 1 uM, 8 h) turned out to be 2.26 ± 0.14.

Consider IYNGGVEAVSTLLGAVAVFAVGYI [SLC19A2], for which, for the setting “treatment: DMSO”, the protein stability index amounted to 2.37 ± 0.26.

SKAGPTRIFTSNTHSSVVLQGFDQ [KLHL13]: the protein stability index is, setting by setting: (treatment: DMSO) 3.53 ± 0.32; (treatment: MLN4924 1 uM, 8 h) 3.32 ± 0.12.

Take SDCCRKLLSSGFEIDTPDKFGRTC [ANKRD44]: the protein stability index runs as follows: (treatment: DMSO) 2.8 ± 0.27; (treatment: MLN4924 1 uM, 8 h) 2.97 ± 0.33.

For IKSVLWQTLQALNFCHIHNCIHRD [CDKL4], the protein stability index reads like this: (treatment: DMSO) 3.15 ± 0.99; (treatment: MLN4924 1 uM, 8 h) 2.99 ± 0.72.

As to FSDPSQSDPETKDFWLNMAALTEA [FCHO1], the protein stability index reads like this: (treatment: DMSO) 3.4 ± 0.47; (treatment: MLN4924 1 uM, 8 h) 3.79 ± 0.37.

With LKAKKVWYDMFRDAAAILLDEQNK [ZMAT5], the protein stability index reads like this: (treatment: DMSO) 2.38 ± 0.1; (treatment: MLN4924 1 uM, 8 h) 2.26 ± 0.17.

Consider ALYVQAPTVTIEGFLQALSLAVDK [TRIP13], for which the protein stability index turned out to be 2.09 ± 0.46 (treatment: DMSO) and 2.2 ± 0.17 (treatment: MLN4924 1 uM, 8 h).

For the sequence YIESSTKVYDDMAFRYLSWILFPL [CLPTM1], the protein stability index by setting is: (treatment: DMSO) 2.73 ± 0.13; (treatment: MLN4924 1 uM, 8 h) 2.61 ± 0.47.

VENRVVEEAKGLLDKVKDGGYRPA [ZBED1]: the protein stability index is, setting by setting: (treatment: DMSO) 4.82 ± 0.13; (treatment: MLN4924 1 uM, 8 h) 4.94 ± 0.094.

QQQIHHIKNLYAFNLFCQKRFDES [VPS39] had a protein stability index (treatment: DMSO) of 2.29 ± 0.11 and a protein stability index (treatment: MLN4924 1 uM, 8 h) of 2.42 ± 0.15.

For the sequence VKSNTEQMREAFATAFSKLKPESS [ZBED1], the protein stability index reads like this: (treatment: DMSO) 4.34 ± 0.24; (treatment: MLN4924 1 uM, 8 h) 4.27 ± 0.18.

The sequence QELQIDDNEYAYLKAIIFFDPDAK [HNF4A] showed a protein stability index (treatment: DMSO) of 2.53 ± 0.22 and a protein stability index (treatment: MLN4924 1 uM, 8 h) of 2.72 ± 0.21.

For the sequence DILWEHLEQMIKENQEKTEDQYEE [ETS2], the protein stability index (treatment: DMSO) came to 5.02 ± 0.21 and the protein stability index (treatment: MLN4924 1 uM, 8 h) turned out to be 5.22 ± 0.2.

On to LGVYSALREIAFTRQLHEKTSQLS [ATE1], for which the protein stability index is 2.59 ± 0.71 (treatment: DMSO) and 2.4 ± 0.69 (treatment: MLN4924 1 uM, 8 h).

On to EALAATWEQPWASEVFGPERMPPS [PXN], for which the protein stability index is, setting by setting: (treatment: DMSO) 3.33 ± 0.27; (treatment: MLN4924 1 uM, 8 h) 3.5 ± 0.47.

Turning to TSSAKVDMTFEEEAQLLQLKVKCL [FKBP8], the protein stability index came out at 3.48 ± 0.28 (treatment: DMSO) and 3.54 ± 0.33 (treatment: MLN4924 1 uM, 8 h).

As for EFPEARIFEETLNILIYETPRGPD [KCTD13], the protein stability index was 2.48 ± 0.15 (treatment: DMSO) and 2.5 ± 0.44 (treatment: MLN4924 1 uM, 8 h).

As to LRSRYSVASFKFDAGEVSYLPRDF [MYORG], the protein stability index is, setting by setting: (treatment: DMSO) 2.37 ± 0.12; (treatment: MLN4924 1 uM, 8 h) 2.42 ± 0.37.

With SLQFDEKCLSIMLAEWEANPLICP [RPAIN], the protein stability index came out at 2.33 ± 0.24 (treatment: DMSO) and 2.29 ± 0.18 (treatment: MLN4924 1 uM, 8 h).

For SEKTDESDTIPYLKKFLYNFDNPW [MIA2], the protein stability index is, setting by setting: (treatment: DMSO) 2.78 ± 0.14; (treatment: MLN4924 1 uM, 8 h) 2.11 ± 0.039.

On to IICEAHKVLGNRWAEIAKMLPGRT [MYBL2], for which the protein stability index reads like this: (treatment: DMSO) 2.25 ± 0.099; (treatment: MLN4924 1 uM, 8 h) 2.2 ± 0.16.

The sequence PPTSPEPPRSSPRQTPAPGPAREK [CEBPD] showed a protein stability index (treatment: MLN4924 1 uM, 8 h) of 5.62 ± 0.089.

Turning to NTKEKIAFFASHQCSNRIGSMKIK [FBXO34], the protein stability index runs as follows: (treatment: DMSO) 2.79 ± 0.19; (treatment: MLN4924 1 uM, 8 h) 2.72 ± 0.46.

LGAGGGSLLPGAVEQPQPQFISRF [NEK8]: the protein stability index (treatment: DMSO) was found to be 3.14 ± 0.21 and the protein stability index (treatment: MLN4924 1 uM, 8 h) turned out to be 3.32 ± 0.46.

Turning to RRERNNIAVRKSRDKAKMRNLETQ [CEBPB], the protein stability index came out at 4.28 ± 0.18 (treatment: DMSO) and 4.5 ± 0.19 (treatment: MLN4924 1 uM, 8 h).

As to PQIPVDRGSETTYESSADIAGDEG [TAF7L], the protein stability index is, setting by setting: (treatment: DMSO) 5.46 ± 0.22; (treatment: MLN4924 1 uM, 8 h) 5.48 ± 0.32.
